For one molecule, binding result and Kd results are on record in paper PMC4822050.

Data set [1] concerns the target T1, UHRF1 deltaSRA (human, UniProt Q96T88 1-793, del414-617).
T1 sequence: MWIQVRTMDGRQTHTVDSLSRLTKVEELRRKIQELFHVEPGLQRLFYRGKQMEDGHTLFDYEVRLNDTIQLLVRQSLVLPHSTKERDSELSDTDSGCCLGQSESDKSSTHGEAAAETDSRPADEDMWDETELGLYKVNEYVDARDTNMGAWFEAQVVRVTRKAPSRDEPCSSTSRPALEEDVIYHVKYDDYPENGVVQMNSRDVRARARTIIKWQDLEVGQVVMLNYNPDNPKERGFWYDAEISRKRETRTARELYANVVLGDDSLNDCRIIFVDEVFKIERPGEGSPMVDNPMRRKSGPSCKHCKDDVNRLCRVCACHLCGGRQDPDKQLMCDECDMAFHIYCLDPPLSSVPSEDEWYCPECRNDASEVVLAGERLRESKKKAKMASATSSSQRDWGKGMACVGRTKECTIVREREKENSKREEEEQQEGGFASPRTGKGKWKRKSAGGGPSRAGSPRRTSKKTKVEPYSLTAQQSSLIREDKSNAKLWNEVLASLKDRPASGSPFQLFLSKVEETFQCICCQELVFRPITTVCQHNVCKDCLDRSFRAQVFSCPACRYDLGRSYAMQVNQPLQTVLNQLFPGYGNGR
The data set can be described thus: FP; not detectable; ITC: 10 mM HEPES pH 8.0, 100 mM NaCl, 18 C; EMSA: 20 mM HEPES pH 7.5, 100 mM NaCl, 8% glycerol, 1 mM DTT, on ice; pull-down: 20 mM HEPES-NaOH pH 8.0, 100 mM NaC.

The target of data set [2] is T2, UHRF1 full-length (human, UniProt Q96T88 1-793).
T2 sequence: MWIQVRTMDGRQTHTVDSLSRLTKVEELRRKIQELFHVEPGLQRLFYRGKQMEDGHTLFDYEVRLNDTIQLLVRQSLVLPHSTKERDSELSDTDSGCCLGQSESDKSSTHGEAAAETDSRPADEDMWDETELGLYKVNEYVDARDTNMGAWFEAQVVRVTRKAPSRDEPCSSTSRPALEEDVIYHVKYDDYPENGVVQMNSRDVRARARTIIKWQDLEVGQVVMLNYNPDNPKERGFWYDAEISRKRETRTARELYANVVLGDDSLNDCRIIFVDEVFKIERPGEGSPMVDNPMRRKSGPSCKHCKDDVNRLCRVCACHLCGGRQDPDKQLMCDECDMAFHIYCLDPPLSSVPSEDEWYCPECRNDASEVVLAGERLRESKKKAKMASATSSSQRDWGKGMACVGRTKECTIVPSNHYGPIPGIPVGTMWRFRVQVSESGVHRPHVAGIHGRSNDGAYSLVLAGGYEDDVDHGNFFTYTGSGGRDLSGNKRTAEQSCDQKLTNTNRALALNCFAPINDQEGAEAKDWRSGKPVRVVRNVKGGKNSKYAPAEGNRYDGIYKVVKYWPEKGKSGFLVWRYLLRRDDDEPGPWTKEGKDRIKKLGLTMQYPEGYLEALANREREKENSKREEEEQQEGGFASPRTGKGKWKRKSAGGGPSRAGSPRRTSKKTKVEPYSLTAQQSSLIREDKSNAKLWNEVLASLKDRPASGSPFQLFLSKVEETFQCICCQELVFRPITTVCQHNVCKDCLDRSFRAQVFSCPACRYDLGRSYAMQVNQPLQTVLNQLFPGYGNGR
The data set can be described thus: FP; ITC: 10 mM HEPES pH 8.0, 100 mM NaCl, 18 C; EMSA: 20 mM HEPES pH 7.5, 100 mM NaCl, 8% glycerol, 1 mM DTT, on ice; pull-down: 20 mM HEPES-NaOH pH 8.0, 100 mM NaC.

The target of data set [3] is T3, SRA-Spacer (human, UniProt Q96T88 414-674).
T3 sequence: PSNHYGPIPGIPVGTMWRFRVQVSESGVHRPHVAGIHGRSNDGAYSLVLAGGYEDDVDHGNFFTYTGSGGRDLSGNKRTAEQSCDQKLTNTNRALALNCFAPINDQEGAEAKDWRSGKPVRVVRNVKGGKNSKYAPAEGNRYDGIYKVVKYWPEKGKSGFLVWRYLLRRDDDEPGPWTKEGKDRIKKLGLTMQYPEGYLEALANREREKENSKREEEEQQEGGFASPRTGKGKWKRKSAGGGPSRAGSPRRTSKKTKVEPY
The description is as above.

For data set [4], the target named is T4, UHRF1 deltaTTD (human, UniProt Q96T88 1-793, del134-285).
T4 sequence: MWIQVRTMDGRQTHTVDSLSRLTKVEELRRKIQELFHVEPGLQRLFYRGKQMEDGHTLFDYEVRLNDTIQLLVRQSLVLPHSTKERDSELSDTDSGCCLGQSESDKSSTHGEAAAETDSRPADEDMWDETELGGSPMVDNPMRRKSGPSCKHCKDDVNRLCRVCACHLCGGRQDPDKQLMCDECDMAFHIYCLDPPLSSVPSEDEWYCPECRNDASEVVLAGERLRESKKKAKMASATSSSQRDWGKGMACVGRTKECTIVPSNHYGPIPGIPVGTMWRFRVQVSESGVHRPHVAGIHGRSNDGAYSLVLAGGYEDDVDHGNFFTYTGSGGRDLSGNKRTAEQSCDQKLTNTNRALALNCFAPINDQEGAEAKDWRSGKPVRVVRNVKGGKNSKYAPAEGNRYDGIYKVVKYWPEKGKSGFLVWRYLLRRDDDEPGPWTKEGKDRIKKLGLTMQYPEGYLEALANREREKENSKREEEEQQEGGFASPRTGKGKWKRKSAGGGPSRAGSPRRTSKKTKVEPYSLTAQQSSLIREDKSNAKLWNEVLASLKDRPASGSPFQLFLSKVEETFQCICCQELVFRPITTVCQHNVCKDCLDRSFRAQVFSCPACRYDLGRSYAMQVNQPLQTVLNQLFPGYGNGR
The description is as above.

B1: FAM-12bp-HM-DNA (dsDNA)
DNA 1: CCATGCGCTGAC
DNA 2: GTCAGCGCATGG
modifications: 5-methyl-dC at position 6 of strand 2 (GTCAGXGCATGG)
For the molecule B1, the binding result in data set [1] is “no binding”. For the same molecule, the Kd (usually a measure of binding affinity in units of concentration) came out at 350 ± 70 nM in data set [2], 490 ± 80 nM in data set [3] and 490 ± 80 nM in data set [4].
